{"source": "patent US5389611A", "about": "“Lactoferrin hydrolyzate for use as an antibacterial agent and as a tyrosinase inhibition agent” (priority 1990, dated 1995)", "origin": "cited, not measured here", "key": {"[1]": {"tested_on": "coliform bacillus (Escherichia coli), staphylococcus and other enterobacteria", "settings": "Nonnecke and Smith 1984"}, "[2]": {"settings": "Ford et al 1977"}}, "note": "Like-named read-outs stand apart in the source and are kept apart here.", "data": [{"substance": "lactoferrin", "values": [{"measurement": "concentration having antibacterial activity", "setting": "[1]", "result": "0.5 to 30", "unit": "mg/mL"}, {"measurement": "antibacterial activity after heating", "setting": "[2]; heating at 62.5° C. for 30 minutes", "result": "almost completely suppressed"}, {"measurement": "antibacterial activity after heating", "setting": "[2]; heating at 70° C. for 15 minutes", "result": "complete deactivation"}]}]}
